The supplement of paper PMC12764529
± gives the half width of the 95% confidence interval.

Test: folding stability dG unfold from chymotrypsin proteolysis; higher = more stable
How it was run: (§1)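 How resistant each design was to proteolysis was captured as K50, inferred by Bayesian fitting of sequencing counts. Unfolding free energy was then derived relative to a sequence-predicted unfolded-state K50 and a shared folded-state K50, per protease or combined. Digestion used trypsin and chymotrypsin at 11 threefold-diluted concentrations plus a no-protease condition, on mini-proteins under 80 residues without cysteine in a PA-tagged cDNA display construct. Designs were kept only when AlphaFold2 dimer inter-PAE was above 15.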

Compared with “SAGGSAGGSEKPEVEKITLEITLTDEDGNKHTIKVELVRNAKTKKYYLRITLEDGSEFVFEIDSAGGSAGGS [r12_286_TrROS_Hall]”, “SAGGMSSSSYTYTTPLSSLKAAHPDLSEEELLALAKEAAKAALEAEGVPVSSVTATLAPDGTLTIVDSAGGS [r8_368_JUSTAS]” is lower in “folding stability dG unfold” value: 4.83 ± 0.14 kcal/mol for the first, 0.634 ± 0.12 kcal/mol for the second.

First: SAGMTPDTTLPDLVVTIYSPDGTSTTYTFPNVTRVTEVDPETGKLTLYSPEGRTITLTLSPDEKVEIVGSAG [r5_762_JUSTAS]
Second: SAGGSAGGSAGGPKYKIEIEIKKIKVKVEKTVKYDGKTYKEEKEFEVLEIKIKIEPEGESAGGSAGGSAGGS [r10_118_TrROS_Hall]
The “folding stability dG unfold” value of the first is lower: 3.024 ± 0.027 kcal/mol for the first, 4.29 ± 0.21 kcal/mol for the second.

Compared with “SAGGKKKKKKKIEKKVKTVTIKIKAKTKEEAKKALEELLKKKGLEVEIVKIEYDPETKEITVTVKVKPSAGG [r13_567_TrROS_Hall]”, “SAGGMVLFRIRFRTGPDGIVRLDPELLEQAEGADIDEDDPRVALILAEPEFLEKLSPELLEEAEILPSAGGS [r16_328_TrMRF]” is lower in “folding stability dG unfold” value: 2.32 ± 0.12 kcal/mol for the first, 0.606 ± 0.12 kcal/mol for the second.

Compared with “SAGGSAMEELKEKVLEAWKKLTPDTPVTIKEINPEKKEITIETTSEEAKEKLKKAAKEMGIKIKIKSAGGSA [r15_196_JUSTAS]”, “SAGGKPKVYEFEITIEFKTKTKKDKNGKTYKVKKIKIKIKVKVVVDEENKKIYIFDENGKLIAEFELSAGGS [r16_92_TrROS_Hall]” is higher in “folding stability dG unfold” value: 1.28 ± 0.33 kcal/mol for the first, 4.01 ± 0.13 kcal/mol for the second.

First: SAGGMVKLTITITTENETTTYPRVVPEEELEEVKKEAEELAKKLGADPKTVTVSKVERLKEPGGVPVSAGGS [r16_650_JUSTAS]
Second: SAGGSAKEIKPGEKIKVRNKETGKWFEATVTEVKKLENGELYVKVEVTIDGKTYTVTIPLKDIEVVSAGGSA [r15_62_TrROS_Hall]
The “folding stability dG unfold” value of the first is lower: 0.901 ± 0.033 kcal/mol for the first, 4.72 ± 0.3 kcal/mol for the second.

Going from “SAGGSARIEPVGDYLVIEIPFRYPDGMEWYIEIVINPEEGKIPVDQYPPGDGEPVGEKTLPADEVKSAGGSA [r15_671_TrROS]” to “SAGGSAMKLTAETTDPGSDRFEATIYDPSDSGGDSVVSFESEEELEAFIKNLPSSVASVSLVPTSPSAGGSA [r15_589_JUSTAS]”, the “folding stability dG unfold” value falls from 2.27 ± 0.11 kcal/mol to 0.378 ± 0.035 kcal/mol.

Going from “SAGPTVRIHLPGFEPIRFPPGDELALPFPNGYYLIIRRKPDGEVEVFPMGGEERKLPDADEVEIYMFPASAG [r5_869_TrROS]” to “SAGGMTVTVKVTEIKKIGDKYEITLKNPDGTPKTVTIDDPEVVKKITPDSEVTVTVNPDGSYTITLESAGGS [r16_2_JUSTAS]”, the “folding stability dG unfold” value rises from 1.32 ± 0.15 kcal/mol to 3.48 ± 0.23 kcal/mol.

Compared with “SAGGSAGGGVYLNGLLPGGVALLSAPTASGEYTLILISPDNRALIFSYPADTGTPRVAEIDLPTSAGGSAGG [r6_159_TrMRF]”, “SAGGSAGGSAGGGSVTLKRPGGSEVTLPDVTADSTITTLPDGTTVVTIPGTGKTYVVPSSAGGSAGGSAGGS [r10_1035_JUSTAS]” is lower in “folding stability dG unfold” value: 1.87 ± 0.065 kcal/mol for the first, 0.111 ± 0.2 kcal/mol for the second.

Test: folding stability dG unfold (combined trypsin and chymotrypsin); higher = more stable
How it was run: as §1

Going from “SAGGSAGGVEPVVVGRVPVVVRDPATGELREAEILRALPDGTLFIRFPNGERAEIRGAPVLSLASAGGSAGG [r6_433_TrMRF]” to “SAGKIKIDVMPPGWFLRIKIEHGGKEQERMIPIPGDSVDEIVKEALDEIQQHFPNKPIKVDIEIYPVDDSAG [r5_180_TrROS]”, the “folding stability dG unfold” value falls from 1.35 ± 0.086 kcal/mol to 0.874 ± 0.37 kcal/mol.

Going from “SAGGSAGGSAGGAVTTNKDVPLPGPFSIGTVTVSPPDPATPVVTFNSYEGNGPVTLTVPVSAGGSAGGSAGG [r11_1013_JUSTAS]” to “SAGGSAGGSKEKTYVIKVTITNENGEEFTLELTVTMTEEEAEELAKKLKELYPNAKVTIEKLPSAGGSAGGS [r12_268_TrROS_Hall]”, the “folding stability dG unfold” value rises from 0.921 ± 0.04 kcal/mol to 4.13 ± 0.16 kcal/mol.

First: SAGGSAGGSKNDWGEFDAEVPFFKEKKKVKIYKNPDNPNIYYIEFPKTGKIFKVYPNGEIKEESAGGSAGGS [r12_580_TrMRF]
Second: SAGGSKIKELLDAIKKAIEEGKEEVTIEVTLPNGSKIKFYPDGTIEITNKNGEKKTIKIKADDIKPSAGGSA [r2_97_TrROS_Hall]
The “folding stability dG unfold” value of the first is lower: 1.49 ± 0.16 kcal/mol for the first, 1.99 ± 0.27 kcal/mol for the second.

Going from “SMMKVKVRITFEDGEEVEIEIEMSREELKNKIEELIKELAEKEGKEVKEVKIEIVDEKTNETYTFTIKVKSA [r9_1193_TrROS_Hall]” to “SARPLVVTNPKGSTVRLDPSTGTAEFRNLVTGETVTAKVKPVPNGVLVEVEEGGVKKTFVVPEDGKIVLGSA [r9_239_TrMRF]”, the “folding stability dG unfold” value falls from 3.65 ± 0.3 kcal/mol to -0.0287 ± 0.066 kcal/mol.

Compared with “SAGGSAGGSAGKPIKLEEVLEKLNPEKIESVFVFPPIPYVVVLLKDSNGNKKIIVVKEDKSAGGSAGGSAGG [r17_374_TrMRF]”, “SAGGIKIPPGQEIEMPFKVRVGGEPYPFRIEIKILKVNPDNGHFLIKMEIEDPENGQPIAEFTFFIPPSAGG [r13_582_TrROS]” is higher in “folding stability dG unfold” value: 0.837 ± 0.13 kcal/mol for the first, 3.35 ± 0.39 kcal/mol for the second.

Going from “SAGGSGPDVPLEEIARRIAEELGVPILSVDFERDPEAPVVTIRVTFRSPAPGRLEERTVVLPRELLSAGGSA [r2_156_JUSTAS]” to “SAGGSAGGSAGKPKIKIEEIIEIEVITKKKIPETGKEKETPEKLYIIKVKVENIPPNLKVSAGGSAGGSAGG [r17_530_TrMRF]”, the “folding stability dG unfold” value rises from 0.883 ± 0.068 kcal/mol to 1.38 ± 0.25 kcal/mol.

“SPPNFEVKEVEIPVPWEEIKELLPPGFTDIEPTGDRWTLHFKHPGYFVMIEIQWDPEDNQFPVKISVFKMSA [r9_604_TrROS]” and “SAGGNFEIWRHPENGILWIEFRIPAGEPLEIPLKFKAPNGKPIKITKFHIWPMNDWWYIKFIIKIPPSAGGS [r16_499_TrROS]” are within error of each other in “folding stability dG unfold” value: 3.35 ± 0.19 kcal/mol for the first, 2.99 ± 0.25 kcal/mol for the second.

First: IEEIKNFAKKHGFNVKIEPVKVDSEEEAKEEAEDHEKKNGYPTIIIKNPENGEIVWVIKIRPPPPPPGQPPS [r1_179_TrROS]
Second: SAGGSAGGSEKPEVEKITLEITLTDEDGNKHTIKVELVRNAKTKKYYLRITLEDGSEFVFEIDSAGGSAGGS [r12_286_TrROS_Hall]
The “folding stability dG unfold” value of the first is lower: 3.18 ± 0.31 kcal/mol for the first, 4.71 ± 0.13 kcal/mol for the second.

Going from “SAGGMSSSSYTYTTPLSSLKAAHPDLSEEELLALAKEAAKAALEAEGVPVSSVTATLAPDGTLTIVDSAGGS [r8_368_JUSTAS]” to “SAGMTPDTTLPDLVVTIYSPDGTSTTYTFPNVTRVTEVDPETGKLTLYSPEGRTITLTLSPDEKVEIVGSAG [r5_762_JUSTAS]”, the “folding stability dG unfold” value rises from 0.834 ± 0.14 kcal/mol to 2.84 ± 0.037 kcal/mol.

Going from “SAGGSAGGSAGGPKYKIEIEIKKIKVKVEKTVKYDGKTYKEEKEFEVLEIKIKIEPEGESAGGSAGGSAGGS [r10_118_TrROS_Hall]” to “SAGGKKKKKKKIEKKVKTVTIKIKAKTKEEAKKALEELLKKKGLEVEIVKIEYDPETKEITVTVKVKPSAGG [r13_567_TrROS_Hall]”, the “folding stability dG unfold” value falls from 4.05 ± 0.29 kcal/mol to 2.14 ± 0.085 kcal/mol.

“SAGGMVLFRIRFRTGPDGIVRLDPELLEQAEGADIDEDDPRVALILAEPEFLEKLSPELLEEAEILPSAGGS [r16_328_TrMRF]” and “SAGGSAMEELKEKVLEAWKKLTPDTPVTIKEINPEKKEITIETTSEEAKEKLKKAAKEMGIKIKIKSAGGSA [r15_196_JUSTAS]” are within error of each other in “folding stability dG unfold” value: 0.684 ± 0.047 kcal/mol for the first, 0.63 ± 0.39 kcal/mol for the second.

First: SAGGKPKVYEFEITIEFKTKTKKDKNGKTYKVKKIKIKIKVKVVVDEENKKIYIFDENGKLIAEFELSAGGS [r16_92_TrROS_Hall]
Second: SAGGMVKLTITITTENETTTYPRVVPEEELEEVKKEAEELAKKLGADPKTVTVSKVERLKEPGGVPVSAGGS [r16_650_JUSTAS]
The “folding stability dG unfold” value of the first is higher: 3.72 ± 0.26 kcal/mol for the first, 0.856 ± 0.061 kcal/mol for the second.

Compared with “SAGGSAKEIKPGEKIKVRNKETGKWFEATVTEVKKLENGELYVKVEVTIDGKTYTVTIPLKDIEVVSAGGSA [r15_62_TrROS_Hall]”, “SAGGSARIEPVGDYLVIEIPFRYPDGMEWYIEIVINPEEGKIPVDQYPPGDGEPVGEKTLPADEVKSAGGSA [r15_671_TrROS]” is lower in “folding stability dG unfold” value: 4.88 ± 0.55 kcal/mol for the first, 1.52 ± 0.23 kcal/mol for the second.

Compared with “SAGGSAMKLTAETTDPGSDRFEATIYDPSDSGGDSVVSFESEEELEAFIKNLPSSVASVSLVPTSPSAGGSA [r15_589_JUSTAS]”, “SAGPTVRIHLPGFEPIRFPPGDELALPFPNGYYLIIRRKPDGEVEVFPMGGEERKLPDADEVEIYMFPASAG [r5_869_TrROS]” is higher in “folding stability dG unfold” value: 0.728 ± 0.033 kcal/mol for the first, 1.07 ± 0.13 kcal/mol for the second.

First: SAGGMTVTVKVTEIKKIGDKYEITLKNPDGTPKTVTIDDPEVVKKITPDSEVTVTVNPDGSYTITLESAGGS [r16_2_JUSTAS]
Second: SAGGSAGGGVYLNGLLPGGVALLSAPTASGEYTLILISPDNRALIFSYPADTGTPRVAEIDLPTSAGGSAGG [r6_159_TrMRF]
The “folding stability dG unfold” value of the first is higher: 3.84 ± 0.29 kcal/mol for the first, 1.49 ± 0.11 kcal/mol for the second.

With “SAGGSAGGSAGGGSVTLKRPGGSEVTLPDVTADSTITTLPDGTTVVTIPGTGKTYVVPSSAGGSAGGSAGGS [r10_1035_JUSTAS]” the “folding stability dG unfold” value was 0.495 ± 0.093 kcal/mol.
